From patent US20260055369A1 (H LEE MOFFITT CANCER CENTER AND RESEARCH INSTITUTE, published 2026) come the findings set out here.

Assay [1] addresses T1, mouse Notch1 (EGF6-13, residues 221-526), biotinylated (mouse, UniProt Q01705 221-526, Biotinylated in vitro by BirA at the C-terminal BAP-tag (tag not in the letters).).
T1 construct: Immobilised on a streptavidin chip for SPR; also called mNotch1 EGF6-13; mNotch1 (6-13)
T1 sequence: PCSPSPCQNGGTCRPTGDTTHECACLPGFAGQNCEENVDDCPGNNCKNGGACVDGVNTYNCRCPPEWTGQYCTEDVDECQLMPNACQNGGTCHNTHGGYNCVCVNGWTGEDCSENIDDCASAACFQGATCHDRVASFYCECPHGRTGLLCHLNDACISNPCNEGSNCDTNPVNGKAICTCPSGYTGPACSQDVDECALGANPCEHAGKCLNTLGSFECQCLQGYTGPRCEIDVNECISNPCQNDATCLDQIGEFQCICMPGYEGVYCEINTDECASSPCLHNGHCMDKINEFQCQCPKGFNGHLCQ
The experiment in a line: SPR (Biacore T200), biotinylated mNotch1 EGF6-13 on streptavidin chip, DLL4 protein (N-EGF5) in flow, 1:1 model. As to the method:
The binding affinity was measured between each DLL4 variant and the EGF6-13 region of murine Notch1 (mNotch1 EGF6-13) to test for cross-species reactivity (FIGS. 2B, 10, 11A). […] Lastly, the binding of Delta^MAX to full-length, cell surface-expressed Notch1 was assessed.
Equilibrium dissociation constants were determined by surface plasmon resonance using a Biacore T200 instrument (GE Healthcare). Approximately 100 resonance units (RU) of biotinylated Notch extracellular fragments (Notch1 (EGF6-13), Notch2 (EGF6-13), Notch3 (EGF5-12), Notch4 (7-12), and mouse Notch1 (EGF6-13)) were immobilized on individual flow cells at 5 μl/min using a streptavidin-coated sensor chip (Series S Sensor chip SA, GE Healthcare). Three-fold serial dilutions of recombinant DLL4 proteins (N-EGF5) starting at 50 μM (WT DLL4), 18 μM (DLL4.v2), and 6 μM (DLL4.v1 and Delta^MAX) were flowed over the chip at 25° C. in SPR buffer (20 mM HEPES pH 7.4, 150 mM NaCl, 1 mM calcium chloride, 0.1% BSA supplemented with 0.005% surfactant P20). Association (“on-rate”) and dissociation (“off-rate”) phases were performed at 10 μl/min for 120 seconds and 300 seconds, respectively. […] Data collection rate was performed at 10 Hz, and curves were reference-subtracted from a flow cell containing 100 RU of a negative control non-related protein (biotinylated mouse RNF43 PA domain). […]

Assay [2] deals with T2, hNotch2 (EGF6-13, residues 221-530), biotinylated (human, UniProt Q04721 221-530, Biotinylated in vitro by BirA at the C-terminal BAP-tag (tag not in the letters).).
T2 construct: Immobilised on a streptavidin chip for SPR
T2 sequence: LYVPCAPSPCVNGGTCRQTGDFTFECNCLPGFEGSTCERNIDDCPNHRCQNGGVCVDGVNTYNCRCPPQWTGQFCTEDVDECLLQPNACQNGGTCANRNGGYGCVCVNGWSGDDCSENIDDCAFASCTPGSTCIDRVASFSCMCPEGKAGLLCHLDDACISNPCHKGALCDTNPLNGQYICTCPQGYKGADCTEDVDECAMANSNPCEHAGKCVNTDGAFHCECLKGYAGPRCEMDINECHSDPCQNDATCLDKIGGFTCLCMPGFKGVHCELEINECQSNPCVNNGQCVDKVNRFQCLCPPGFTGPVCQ
Kind of assay: SPR (Biacore T200), biotinylated Notch fragment on streptavidin chip, DLL4 protein (N-EGF5) in flow, 1:1 model. As to the method:
(§1) The rapid dissociation of WT DLL4 precluded kinetic fitting of the binding data.
(§2) Equilibrium dissociation constants were determined by surface plasmon resonance using a Biacore T200 instrument (GE Healthcare). Approximately 100 resonance units (RU) of biotinylated Notch extracellular fragments (Notch1 (EGF6-13), Notch2 (EGF6-13), Notch3 (EGF5-12), Notch4 (7-12), and mouse Notch1 (EGF6-13)) were immobilized on individual flow cells at 5 μl/min using a streptavidin-coated sensor chip (Series S Sensor chip SA, GE Healthcare). Three-fold serial dilutions of recombinant DLL4 proteins (N-EGF5) starting at 50 μM (WT DLL4), 18 μM (DLL4.v2), and 6 μM (DLL4.v1 and Delta^MAX) were flowed over the chip at 25° C. in SPR buffer (20 mM HEPES pH 7.4, 150 mM NaCl, 1 mM calcium chloride, 0.1% BSA supplemented with 0.005% surfactant P20). Association (“on-rate”) and dissociation (“off-rate”) phases were performed at 10 μl/min for 120 seconds and 300 seconds, respectively. […] Data collection rate was performed at 10 Hz, and curves were reference-subtracted from a flow cell containing 100 RU of a negative control non-related protein (biotinylated mouse RNF43 PA domain). The maximum RU for each experiment was normalized to a value of 100% and plotted as a function of concentration using Prism 9 software (GraphPad). Steady-state binding and kinetic curves were fitted using the Biacore T200 evaluation software to a 1:1 Langmuir model to determine the KD values.
(In general: Surface plasmon resonance follows binding to a sensor surface in real time, without labels.)

For assay [3], the target named is T3, hNotch4 (EGF7-12, residues 276-511), biotinylated (human, UniProt Q99466 276-511, Biotinylated in vitro by BirA at the C-terminal BAP-tag (tag not in the letters).).
T3 construct: Immobilised on a streptavidin chip for SPR; also called Notch4 (7-12)
T3 sequence: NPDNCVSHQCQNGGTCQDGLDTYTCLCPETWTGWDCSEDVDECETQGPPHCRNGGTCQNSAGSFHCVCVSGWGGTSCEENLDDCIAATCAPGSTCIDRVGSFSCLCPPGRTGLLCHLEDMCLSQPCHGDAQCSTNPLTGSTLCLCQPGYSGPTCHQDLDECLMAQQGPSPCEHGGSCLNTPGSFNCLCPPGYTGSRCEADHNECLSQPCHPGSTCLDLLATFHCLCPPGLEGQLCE
The description is as above. As to the method: as §1, §2

Assay [4] addresses T4, hNotch3 (EGF5-12, residues 197-505), biotinylated (human, UniProt Q9UM47 197-505, Biotinylated in vitro by BirA at the C-terminal BAP-tag (tag not in the letters).).
T4 construct: Immobilised on a streptavidin chip for SPR
T4 sequence: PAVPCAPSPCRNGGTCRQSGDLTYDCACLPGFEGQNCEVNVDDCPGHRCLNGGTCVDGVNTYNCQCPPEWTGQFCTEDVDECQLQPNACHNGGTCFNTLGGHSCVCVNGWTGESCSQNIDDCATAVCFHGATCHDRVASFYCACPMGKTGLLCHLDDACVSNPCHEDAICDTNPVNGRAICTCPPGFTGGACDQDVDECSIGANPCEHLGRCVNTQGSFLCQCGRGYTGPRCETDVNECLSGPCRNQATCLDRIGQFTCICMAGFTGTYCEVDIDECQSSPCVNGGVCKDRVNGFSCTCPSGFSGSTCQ
The assay is described as above. As to the method: as §1, §2

B1: Delta^MAX (N-EGF5), non-biotinylated (ligand)
chain: SSVFQLQLQEFINERGVLASGRPCEPGCRTFFRVCLKHFQAVVSPGPCTFGTVSTPVLGTNSFAVRDDSSGGGRNPLQLPLNFTWPGTFSLIIEAWHAPGDDLRPEALPPDALISKFAIQGSLAVGQNWLLDEQTSTLTRLRYSYRVICSDNYYGDNCSRLCKKRNDYFGHYVCQPDGNPSCLPGWTGEYCQQPICLSGCHEQNGYCSKPAECLCRPGWQGRLCNECIPHPGCRHGTCSTPWQCLCDEGWGGLYCDQDLNYCTHHSPCKNGATCRNSGPRSYTCTCRPGYTGVDCELELSECDSNPCRNGGSCKDQEDGYHCLCPPGYYGLHCEHSTLSCADSPCFNGGSCRERNQGANYACECPPNFTGSNCEHHHHHHHH
notes: also called DLL4^MAX; soluble Delta^MAX
The Kd is a measure of binding affinity in units of concentration. A higher Kd goes with a looser complex. For B1, the Kd in assay [1] came to 25 nM; in assay [2], 54 nM; in assay [3] it was 24 nM; in assay [4], 49 nM.
